Among the data in publication PMC6237735 are Kd and factor concentration needed for a toeprinting pattern of 30S:mRNA:aIF1 like that of wt-Pa-aIF1 values, retold here.

Data set [1] addresses Pyrococcus abyssi small ribosomal subunit (Pa-30S) (Pyrococcus abyssi). The data set can be described thus: fluorescence polarisation; fluorescence anisotropy of coumarin-labeled aIF1* (50 nM) titrated with purified Pa-30S, no mRNA; 51°C; 10 mM HEPES pH 7.5, 200 mM NaCl, 10 mM MgAc, 0.1% Tween 20; quadratic fit. Background: Polarisation of emitted light reports the rotation of a fluorescent probe.

The target is the same in data set [2]. Kind of data set: fluorescence polarisation; fluorescence anisotropy of coumarin-labeled aIF1 (50 nM for the variants; 13 nM for Pa-aIF1*) titrated with Pa-30S:mRNA complex (30S with a 2-fold molar excess of mRNA); 51°C; 10 mM HEPES pH 7.5, 200 mM NaCl, 10 mM MgAc, 0.1% Tween 20; quadratic fit.
For data set [3] the target is unchanged.
Data set [4] concerns Pa-aIF1* unlabeled (Pyrococcus abyssi). Kind of data set: competition. The conditions noted are these: chase of labeled aIF1* from 30S; Anisotropy: 10 mM HEPES pH 7.5, 200 mM NaCl, 10 mM Mg acetate, 0.1% Tween 20, 51 C; toeprinting: 10 mM HEPES pH 7.5, 158 mM NaCl, 20 mM NH4Cl, 13.5 mM Mg ….
Data set [5] has as its system Pa-aIF1* (MDCC-coumarin labeled) (Pyrococcus abyssi). The data set can be described thus: fluorescence anisotropy. The conditions noted are these: aIF1* binding to 30S, no mRNA; Anisotropy: 10 mM HEPES pH 7.5, 200 mM NaCl, 10 mM Mg acetate, 0.1% Tween 20, 51 C; toeprinting: 10 mM HEPES pH 7.5, 158 mM NaCl, 20 mM NH4Cl, 13.5 mM Mg ….
In data set [6] the test system is Pa-aIF1*-K34A (Pyrococcus abyssi). The data set can be described thus: fluorescence anisotropy. The conditions noted are these: Anisotropy: 10 mM HEPES pH 7.5, 200 mM NaCl, 10 mM Mg acetate, 0.1% Tween 20, 51 C; toeprinting: 10 mM HEPES pH 7.5, 158 mM NaCl, 20 mM NH4Cl, 13.5 mM Mg ….
For data set [7], the system named is Pa-aIF1*-R31A (Pyrococcus abyssi). Kind of data set: fluorescence anisotropy. Conditions: Anisotropy: 10 mM HEPES pH 7.5, 200 mM NaCl, 10 mM Mg acetate, 0.1% Tween 20, 51 C; toeprinting: 10 mM HEPES pH 7.5, 158 mM NaCl, 20 mM NH4Cl, 13.5 mM Mg ….
In data set [8] the test system is Pa-aIF1*-Y32A (Pyrococcus abyssi). The data set can be described thus: fluorescence anisotropy. Conditions: Anisotropy: 10 mM HEPES pH 7.5, 200 mM NaCl, 10 mM Mg acetate, 0.1% Tween 20, 51 C; toeprinting: 10 mM HEPES pH 7.5, 158 mM NaCl, 20 mM NH4Cl, 13.5 mM Mg ….
For data set [9], the system named is Pa-30S small ribosomal subunit;Pa-aIF1* unlabeled (Pyrococcus abyssi;Pyrococcus abyssi). Kind of data set: competition. The conditions noted are these: Kd of unlabeled aIF1* for 30S:mRNA; 180 nM mRNA; Anisotropy: 10 mM HEPES pH 7.5, 200 mM NaCl, 10 mM Mg acetate, 0.1% Tween 20, 51 C; toeprinting: 10 mM HEPES pH 7.5, 158 mM NaCl, 20 mM NH4Cl, 13.5 mM Mg ….
Data set [10] concerns Pa-30S small ribosomal subunit;Pa-aIF1* (MDCC-coumarin labeled) (Pyrococcus abyssi;Pyrococcus abyssi). The data set can be described thus: fluorescence anisotropy. Conditions: Kd of aIF1* for 30S:mRNA; best fit 0.2 nM; Anisotropy: 10 mM HEPES pH 7.5, 200 mM NaCl, 10 mM Mg acetate, 0.1% Tween 20, 51 C; toeprinting: 10 mM HEPES pH 7.5, 158 mM NaCl, 20 mM NH4Cl, 13.5 mM Mg ….
Data set [11] relates to Pa-30S small ribosomal subunit;Pa-aIF1*-K34A (Pyrococcus abyssi;Pyrococcus abyssi). The data set can be described thus: fluorescence anisotropy. The conditions noted are these: Anisotropy: 10 mM HEPES pH 7.5, 200 mM NaCl, 10 mM Mg acetate, 0.1% Tween 20, 51 C; toeprinting: 10 mM HEPES pH 7.5, 158 mM NaCl, 20 mM NH4Cl, 13.5 mM Mg ….
Data set [12] concerns Pa-30S small ribosomal subunit;Pa-aIF1*-R31A (Pyrococcus abyssi;Pyrococcus abyssi). Kind of data set: fluorescence anisotropy. The conditions noted are these: Anisotropy: 10 mM HEPES pH 7.5, 200 mM NaCl, 10 mM Mg acetate, 0.1% Tween 20, 51 C; toeprinting: 10 mM HEPES pH 7.5, 158 mM NaCl, 20 mM NH4Cl, 13.5 mM Mg ….
For data set [13], the system named is Pa-30S small ribosomal subunit;Pa-aIF1*-Y32A (Pyrococcus abyssi;Pyrococcus abyssi). The data set can be described thus: fluorescence anisotropy. Conditions: Anisotropy: 10 mM HEPES pH 7.5, 200 mM NaCl, 10 mM Mg acetate, 0.1% Tween 20, 51 C; toeprinting: 10 mM HEPES pH 7.5, 158 mM NaCl, 20 mM NH4Cl, 13.5 mM Mg ….
Data set [14] has as its target Pyrococcus abyssi small ribosomal subunit (Pa-30S) (Pyrococcus abyssi). The data set can be described thus: fluorescence polarisation; fluorescence anisotropy of coumarin-labeled aIF1 (50 nM for the variants; 13 nM for Pa-aIF1*) titrated with Pa-30S:mRNA complex (30S with a 2-fold molar excess of mRNA); 51°C; 10 mM HEPES pH 7.5, 200 mM NaCl, 10 mM MgAc, 0.1% Tween 20; quadratic fit. The source holds these as a separate data set.

The subject of data set [15] is Pa-30S small ribosomal subunit (Pyrococcus abyssi). The data set can be described thus: fluorescence anisotropy. The conditions noted are these: 30S alone; mRNA 8 nM; Anisotropy: 10 mM HEPES pH 7.5, 200 mM NaCl, 10 mM Mg acetate, 0.1% Tween 20, 51 C; toeprinting: 10 mM HEPES pH 7.5, 158 mM NaCl, 20 mM NH4Cl, 13.5 mM Mg ….
Data set [16] concerns Pa-30S small ribosomal subunit;Pa-aIF1 (Pyrococcus abyssi;Pyrococcus abyssi). The data set can be described thus: fluorescence anisotropy. The conditions noted are these: preformed 30S:aIF1; mRNA 0.5 nM; Anisotropy: 10 mM HEPES pH 7.5, 200 mM NaCl, 10 mM Mg acetate, 0.1% Tween 20, 51 C; toeprinting: 10 mM HEPES pH 7.5, 158 mM NaCl, 20 mM NH4Cl, 13.5 mM Mg ….

On to Pa-aIF1*-K34A (natural protein), for which the Kd (commonly the concentration at which binding is half-saturated) in [1] is over 300 nM; in data set [2], 45 nM.

In turn, Pa-aIF1-K34A (natural protein) came in with a factor concentration needed for a toeprinting pattern of 30S:mRNA:aIF1 like that of wt-Pa-aIF1 in data set [3] of 8 fold.

As for Pa-aIF1*-R31A (natural protein), the equilibrium dissociation constant (Kd) in data set [1] was 84 nM; in data set [2], under 3 nM.

On to “Pa-30S (16S rRNA in small ribosomal subunit)”, for which the dissociation constant Kd in data set [4] was 40 nM; in data set [5], 12 nM; in data set [6], over 300 nM; in data set [7], 84 nM; in [8], 20 nM.

Turning to Pa-aIF1*-Y32A (natural protein), the dissociation constant Kd in data set [1] turned out to be 20 nM; in [2] it was 22 nM.

With “AUUUGGAGGUGAUUUAAAUGCCAAAG [wt-aEF1A mRNA 26-mer, unlabeled]”, the dissociation constant (Kd) was 0.4 nM in [9]; under 1 nM in data set [10]; 45 nM in [11]; under 3 nM in data set [12]; 22 nM in data set [13].

As for “Pa-aIF1* (Pyrococcus abyssi aIF1 K45C-C62S labeled with coumarin) (natural protein)”, the Kd was 12 nM in data set [1], under 1 nM in [2] and 0.2 nM in data set [14].

With “AUUUGGAGGUGAUUUAAAUGCCAAAG [wt-aEF1A-mRNA 26-mer]”, the equilibrium dissociation constant (Kd) in [15] worked out at 3.3 nM; in data set [16], 0.07 nM.
